For 132 substances, amyloid nucleation score results are on record in the supplement of paper PMC12042874.

± gives the uncertainty stated by the source.

The data set can be described thus: amyloid nucleation score (Sup35N fusion, yeast selection) (log enrichment); library NNK3; higher = more nucleation; inactive = no reads after selection. In outline:
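Using DiMSum, nucleation scores were taken as the log enrichment of output over input reads, centred on the mode score of non-aggregating sequences. The input and output reads came from Illumina sequencing of plasmid inserts, with sequences under 100 input reads excluded. The yeast were psi-negative, expressed Sup35N fused to peptides of 20 random codons, were induced with 100 μM copper sulfate for 24 hours, and were grown 7 days at 30°C on medium lacking adenine and uracil.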
With CCVMHDE, the amyloid nucleation score result is “inactive”.
To CVNGTKEGTVRGSRARGRSF belongs “inactive”.
To CGYEVIGNIFGM belongs “inactive”.
On to SGGVFCYQGSPGVVY, for which the amyloid nucleation score result is “inactive”.
To DLLTFYFEPSASHSLLRPSG belongs “inactive”; to EFKIALRRPINERAESLVTR, “inactive”.
To VIKTLTHSFHLTNGFGTSYI belongs “inactive”; to ILSLPRRNYSKTVFNRLKAE, “inactive”; to LLHCQCSC, “inactive”.
To IVGNLRDKDNYIVGRLEDSD belongs “inactive”; to YSCVEDSGCVCKNPLVISEF, “inactive”; to RSSDSDMSLECKAVE, “inactive”.
Consider SYFRRIRWQLEEHLLLLWR, for which the amyloid nucleation score result is “inactive”.
AGPVMRRLFVNGWFVVFGRM: the amyloid nucleation score entry is “inactive”.
To MICESFVSLLLVKCELLGTA belongs “inactive”; to CMNWCVSRMVNTIVIWCMAY, “inactive”.
To HVLLDPEIITA belongs “inactive”.
To YDSLFCLSSHLGWCNRALPE belongs 0.977 ± 0.13; to SNLVPMQCVIL, “inactive”; to VNILVFLCFAPSLSSRYWWL, 2.28 ± 0.081.
As for SDFFTLSS, the amyloid nucleation score result is “inactive”.
Regarding YFVPWGFAKDRRKTHDLPAE, the amyloid nucleation score entry is “inactive”.
To FRYVREAGIGIVG belongs “inactive”; to FSTFRLSRLCHRDRRSHARQ, “inactive”.
Substance KLCDCVMLLFTLDTRIGNVL displayed an amyloid nucleation score of 0.053 ± 0.7.
To LLVLPGGVSGVNLRDEWTDF belongs “inactive”.
To TYNRHSFLA belongs “inactive”.
To SKVIAPWYEEMRWWRSTGAV belongs “inactive”; to TEGKAVSEV, “inactive”; to FTCFNGQLVMA, “inactive”.
Consider MLEEGVHINSGLMIVWYIIM, for which the amyloid nucleation score result is “inactive”.
To MDSCFRYVTYVTVLGLK belongs “inactive”; to VKTNVCTTYGHY, “inactive”.
To VQWSEMTAFTGFFSVYISSG belongs “inactive”.
To SCLRHPSTSSQNKSCLPDIP belongs “inactive”; to YWFFIIIFNNIHSADGFIVS, “inactive”.
As to SGASYVQS, the amyloid nucleation score result is “inactive”.
To LYSHSGSFSIGSQFNFVWFT belongs 1.44 ± 0.14.
To FQGSNCP belongs “inactive”; to GCNGDRFRF, -0.255 ± 0.88; to PSENKRGFPDLVFAMINSGI, “inactive”.
In the case of LYSKCFGVRLHYVFSMSWSG, the amyloid nucleation score result was “inactive”.
As for RCVLSNSNLCFKFFRVQTME, the amyloid nucleation score entry is “inactive”.
To SRWTCLNFVWSTSQHLQWN belongs “inactive”; to YVDIY, “inactive”; to YVQIGFILIFISNYLSCESA, 1.8 ± 0.071.
Turning to GCFGPLCDRLSEWMENCWKK, the amyloid nucleation score came out at 0.392 ± 0.35.
For the substance VALLDSHGKWFMLGQFLNLK, the amyloid nucleation score result is “inactive”.
To TSLVFLLGLSMFM belongs “inactive”; to DNDLQSTKSPLWGVHQANVR, “inactive”.
To DSRLE belongs “inactive”.
With RREGGTPIAHPLLGPGP, the amyloid nucleation score was -0.076 ± 0.73.
To SAGTLGGYDFVYVAVDSLHR belongs “inactive”; to CGQFVEISKYG, “inactive”; to YFSISLLTSK, “inactive”.
Consider ISRGVVIGTFRRLIERSCGT, for which the amyloid nucleation score result was “inactive”.
To GHLMGETTY belongs “inactive”; to DFYIIDSLIRMCMRICEFVL, “inactive”; to FQPMV, “inactive”.
To YRILRL belongs “inactive”; to RKSGYYLIVMRALNREPTPV, -0.363 ± 1.4.
FMNCWQRAGVRSLGVYGNSA: the amyloid nucleation score came to 0.13 ± 0.45.
To SPFCYRR belongs “inactive”; to WYRHGIVEYDAIIWDESARR, “inactive”; to TRIGSTEKTEQSVWD, -0.198 ± 0.75.
Regarding NPLDSLYLIDIFAHSSASEL, the amyloid nucleation score result is “inactive”.
On to LVKTCRYRGSDLSVLVGVRI, for which the amyloid nucleation score entry is “inactive”.
As for CSGYFDCIDTLKCNSS, the amyloid nucleation score entry was “inactive”.
Turning to STCMFVGSDSRVRVRYIDIC, the amyloid nucleation score entry is “inactive”.
To KLVCRIIDAKAH belongs “inactive”; to NRNFYGL, “inactive”.
To MRTLYFPKCMTRLKMHVSSI belongs “inactive”; to MGFVHINGQCTQLLCCSRLK, 1.94 ± 0.072.
To FVSPYRNHVGVGSDADWGFR belongs “inactive”; to TLYFFKYFWMFVVMCKINKA, “inactive”; to TTILLTFDTGTIS, “inactive”.
As to IALLWQAHLWRHDWKFYFDS, the amyloid nucleation score entry was “inactive”.
To LTYHLFYMVADACVIWYDCS belongs 0.833 ± 0.32; to SNARKGLMNVLRRYWLCDWT, -0.412 ± 0.88; to IITYKVS, “inactive”.
ERSQKWVNF: the amyloid nucleation score entry is “inactive”.
To VSSLR belongs “inactive”; to VVCFLYIRSYNQGLCRSYFR, 2.29 ± 0.091.
To LNGASADRRDWAEWLKADHC belongs “inactive”.
On to TSNTGVSVSRFTFSVDRSVG, for which the amyloid nucleation score entry was “inactive”.
To GLLSR belongs “inactive”.
To ALDIDWFYWYRHQSSPSFFY belongs “inactive”; to INGSGSAIYGRITRGLNGDS, “inactive”; to CYLFVLL, “inactive”.
As for DLHLLYKYILFAKLLV, the amyloid nucleation score result is “inactive”.
In the case of DCESQQLSSSMWDTPQRWLT, the amyloid nucleation score entry was “inactive”.
To QGSHRGMKITGISWTVLGYW belongs “inactive”; to CNWINLNIRSVRIYHPYSRF, 1.54 ± 0.072; to YMLLSVDILSYMPMTVVAEQ, “inactive”.
To FEERHCGANWFGSYVIGRWR belongs 0.798 ± 0.21; to RRFCRYVYEMG, “inactive”; to QSFIRSFIVYVKDALGAHHG, “inactive”.
To MCRMRSW belongs “inactive”; to PNGLKTGGETRGRFYKCYMY, “inactive”.
With ELSTWLAYYVRLGYWCLIMM, the amyloid nucleation score entry is “inactive”.
To KLPMRVGLM belongs “inactive”.
To FGVQVWLMLFLGNVYIWMVM belongs “inactive”; to FSPFNAENSETVTCTGCSHC, “inactive”; to CRLYEDIGISYMVATNQLEY, “inactive”.
To GVKCPKKTNRQWGIVALMRP belongs “inactive”; to FLLNQIIGQLKHHLFVVSVN, “inactive”; to SLFFLSMFVHLMDEMWDWES, “inactive”.
Consider LMRTDNSSKNGSASGGGMSG, for which the amyloid nucleation score entry is “inactive”.
To FYLTR belongs “inactive”; to YSVSEIRKSHLWITINMAVF, “inactive”; to PLYVQSG, “inactive”.
To SACVGFMGPRNIRL belongs “inactive”; to ASDRMKGVLNLLQYVGYSSM, “inactive”.
To YFCLQNFRVFLGRYMIHNYL belongs “inactive”; to FVCCYVYAQQLRRRYIFNLS, “inactive”.
As to PKCRMSMA, the amyloid nucleation score entry was “inactive”.
To RMNYNAYRIFLTPISDWCNL belongs “inactive”; to GCGRCFL, “inactive”.
To KYPNRKLF belongs “inactive”; to TLLLMSWHFGYMRAQF, 3.14 ± 0.05.
To SQRYLNLVPKYLSRLVMCGI belongs “inactive”; to NLYFGHKSTS, “inactive”; to GALGSVMVNGRGVTSEGSPY, 0.341 ± 0.39.
Consider VKRGLVCETSLCRYFFLFGQ, for which the amyloid nucleation score was 1.35 ± 0.089.
For TGGRAPHRCVYSD, the amyloid nucleation score entry is “inactive”.
Regarding FNHPNQGVCIHCISGKGWTR, the amyloid nucleation score result is “inactive”.
To GIELAVFYCHYIRVGSDVY belongs “inactive”; to CFCVDADIIRTLMVCDIILS, 1.12 ± 0.099.
To IGLSSHISWYE belongs “inactive”.
To NGYMSRVHLCPKCFRLHGFR belongs “inactive”.
With LCLSTIV, the amyloid nucleation score entry is “inactive”.
To FYKGKG belongs “inactive”.
